Laboratory results: patent publication EP2404612A1, “Diagnosis, prophylaxis and therapy of Alzheimer's disease and other neurodementing disorders” (Balakrishnan, Karthikeyan, priority 2010, dated 2012)

Assay: CD spectra analysis of ß-sheet conformation
Assay type: physicochemical
Details: 62.5 µM in sodium carbonate (0.05 mM)/ SDS (37.5 mM) buffer, 20°C, instantly after resuspending in buffer
Description: To compare the ß-sheets formed by the wild type and the mutated trimer, respectively, CD spectra analysis was performed. Both peptides were measured at a concentration of 62.5 µM in sodium carbonate (0.05 mM)/ SDS (37.5 mM) buffer with a JASCO J-810 spectroplarimeter (JASCO, Easton, MD, USA). Far-UV CD spectra (190-260 nm) were recorded at 20°C using a quartz cuvette with an optical path length of 1 mm. The scanning speed was set at 20 nm/min with a response time 4 second and bandwidth 2 nm.

wild type Aβ: wild type Aβ peptide compared with mutated Aβ (1-40; G29Ile,G33Ile) in CD spectra; length not stated
ß-sheet: 1%
